Drawing on a protein production outcome set (Wang et al. 2014), this text covers protein production for 22 sequences.

The nature of the series: label from the status in PepcDB records.
“MSKKIRNTEVDHLFDAILTLENKEECYTFFEDVCTVNELLSISQRYEVAKMLREGKTYLDISNATGASTATISRVNRSLNYGNDGYDMVLERVLKKDE”: the protein production entry is given as “not failed”.

Take “MSKKKETKLSKYIKVPIKMLVKARDMYIRSMNQFSSHDLPGSGMSFGIPVCNVSTLPRSFSASHSQYSVRAEDDRVAKLVRAASARNATIDGARHEPSKLRKAKSSRSCGGHRGFEKIDEASPLISFGSKHKMFQRSKSYSVVKYLGS”: the protein production result is on record as “failed”.

As for “MSKNDKPLVSIGIPTYNRAESLKRAINSAVNQTYTNLEIIISDNCSIDETQQLCEELCKLDSRITYIRQAKNFGATNNFSFVLKKATGEYFMWLADDDWISENYIYDCQFFLQNNHQYLLCSGIAKYYLGDDIRMGENICLEENSPIERVKEYFNKVQDNGIFYGLYRKEAVLKLRIPSCFGGDWVFIACILLLGKATTLNTCVIHRVFQEKSTEDYAKEINSKYVLEKSYPYAFICFHFFSEIERTLILQNILTKQQKILLFLDILLTLMRRFGHLYSIEYGWLNIFCIRKKLISLLKIIIRNFRQSCLYFIDSLRTFIYNLKYTPQMYQLYASSKQKNSDLKKLAFFSPVKPIKSGISDYSEELIRFLCKKYQIFVFIDDSYTEKQCPNIENTFYLNHRLFPITSKILGIKKIVYQIGNNYYHNYMFKYINKNHGIVVLHDGIHMSGNVLQQPERHKIVVHSLSASTQVKSKYPNLSVNVISLLMSLPEENLKQDKNSLRHELNIDINTFVFGVFGIISEPKMVYELLLAFCHSFVQNENVAFLMVGYEIADSRVLNFLRANEDDKRLVCKLGVSMEDLYKFIKVTDACFNLRSTSRGETSSSLLRVMSCGIPVIASDIDSFSELPSDVLLKVSQNLSQDELSSILKKIYNEKDKLKEIGKKGKSYINSFHSPSKISDIYSTLIEIE”, the protein production entry is on record as “failed”.

On to “MSKQPWLGYLASVAITCTAAGLAYLLDHWLLPTSGTVLILQLAVLLIAFLTNFRAALLAVVLALLLFNFLFTEPRYSLHMTDIDEMVTAIVFIAVGVITSHLVTLFRNQKESLRQAQLRSNILLSVSHDLRTPLASVIGNLSTLQAYQERLPEQERAELLQGALDESDRLHRYIENLLQATRLQHGEIRLTHAVQDIRPVISKTLSRFASQERLLVKDNLQHAMVEVQSSLLEQALFNVIDNAMRFSGETAPVTLSLSETDKFIVIDIKDEGPGIETSKRSLVFNVFYSSREKDSGTGGTGLGLSVAKGIIDIHNGHIGIEESPDGCLVRIKLPRANITEEVS”, for which the protein production result is given as “failed”.

In the case of “MSKRVLMVVTNHTTITDDHKTGLWLEEFAVPYLVFQEKGYDVKVASIQGGEVPLDPRSINEKDPSWAEAEAALKHTARLSKDDAHGFDAIFLPGGHGTMFDFPDNETLQYVLQQFAEDGRIIAAVCHGPSGLVNATYKDGTPIVKGKTVTSFTDEEEREVGLDVHMPFLLESTLRLRGANFVRGGKWTDFSVRDGNLITGQNPQSSRSTAEKVVAALEERE”, the protein production entry is “not failed”.

For the sequence “MSKSTKVDLVFLFFTAIWGLSFPLTKNVLGYTSIFAFLSLRFTSAAVILIIIFWKKLKLINTKIILYGSLIGLMFFGSLAFQVASLRFTTSSNSSFISALSVVIVPLVSAGYYKKKIDFSCVLGVLFAVVGLFFISGGVNFKLNIGDLFSFLCAICITFQIIFIDIFCSKCDSALLSLIQVVFCAIFYNIVLFIIGTKPIVFNTQLTVSIFITGILGTAVAYTGIVFLEKFTSPTHTALIFCAEPVFATIFAMFIPNNNGSCESITINTFIGCGVILLSMVISELKIGNNIPQKIIKL”, the protein production entry is listed as “failed”.

Take “MSKVALFSHVSPDGDCIGSMLGIGLALEALGKEVAMFNPDPIPRNLSFLPGVDKITQSMPDPLPETLLFVDCADLQRVQLQREDLPADAVILNLDHHISNQNFGRINWVDSQAAASGELAYALVRRLNVELTQEIAANFYTALLTDTGSFKYANTTAKTHQIAGELMELEHHHHHH”: the protein production result is recorded as “failed”.

For the sequence “MSLADISVIQSLPLSGSQAVTGRALNAGARLYFDWLNLNGGINGETIRLVARDDEQKIEQTVRNVRDMARVDNPVALLTVVGTANVEALMREGVLAEARLPLVGPATGASSMTTDPLVFPIKASYQQEIDKMITALVTIGVTRIGVLYQEDALGKEAITGVERTLKAHALAITAMASYPRNTANVGPAVDKLLAADVQAIFLGATAEPAAQFVRQYRARGGEAQLLGLSSIDPGILQKVAGLDAVRGYSLALVMPNPGKSVNPVIREFNRARAAVGAKDVDLSFRAVEGFVAAKVLAEAIRRAGPKPTREQVRHALTELRDYDVGGGFTVDFTDRSRPGSHYIELGVVGPNGLVIQEGHHHHHH”, the protein production entry is recorded as “not failed”.

As to “MSLADTRKIDSVLLIDDDDIVNFLNTTIIRMTHRVEEIQSVTSGNAAINKLNELYAAGRWPSIICIDINMPGINGWELIDLFKQHFQPMKNKSIVCLLSSSLDPRDQAKAEASDWVDYYVSKPLTANALNNLYNKVLNEGHHHHHH”, the protein production result is recorded as “not failed”.

Consider “MSLAEGKWWRIMLVDTQLPALAASISALSQEGFDIIQCGNAIEAVPVAVKTHPHLIITEANMPKISGMDLFNSLKKNPQTASIPVIALSGRATAKEEAQLLDMGFIDFIAKPVNAIRLSARIKRVLKLLYEDLSAPPAREGHHHHHH”, for which the protein production entry is “not failed”.

As to “MSLANLSELPNIGKVLEQDLIKAGIKTPVELKDVGSKEAFLRIWENDSSVCMSELYALEGAVQGIRWHGLDEAKKIELKKFHQSLEGHHHHHH”, the protein production result is given as “not failed”.

In the case of “MSLAPWRGAIAHALHRNRSLVYARYLQLATVQPNGRPANRTLVFRGFLEDTNQLRFITDTRSAKADQIQQQPWAEICWYFPNTREQFRMAGDLTLISSDDSHQDLQPARIAMWQELSDAARLQFGWPYPGKPRIKESGAFEPSPPDPIEPVPNFCLLLLDPVQVDHLELRGEPQNRWLYHRNDQQEWSSEAINP”, the protein production result was “not failed”.

Take “MSLDALTTLPIKKHTALLNRFPETRFVTQLAKKRASWIVFGHYLTPAQFEDMDFFTNRFNAILDMWKVGRYEVALMDGELTSEHETILKALELDYARIQDVPDLTKPGLIVLDMDSTAIQIECIDEIAKLAGVGEEVAEVTERAMQGELDFEQSLRLRVSKLKDAPEQILSQVRETLPLMPELPELVATLHAFGWKVAIASGGFTYFSDYLKEQLSLDYAQSNTLEIVSGKLTGQVLGEVVSAQTKADILLTLAQQYDVEIHNTVAVGDGANDLVMMAAAGLGVAYHAKPKVEAKAQTAVRFAGLGGVVCILSAALVAQQKLSWKSKEGHHHHHH”: the protein production entry is “not failed”.

For the sequence “MSLDARFDIAHLARAELFSPKPQETLDFFTKFLGMYVTHREGQSVYLRGYEDPYPWSLKITEAPEAGMGHAAMRTSSPEALERRAKSLTDGNVDGTWSEDQFGYGKTFEYQSPDGHNLQLLWEAEKYVAPPELRSKILTRPSKKPLQGIPVKRIDHLNLMSSDVTAVKDSFERHLGFRTTERVVDGNVEIGAWMSSNLLGHEVACMRDMTGGHGKLHHLAFFYGTGQHNIDAVEMFRDYDIQIEAGPDKHGITQSQFLYVFEPGGNRIELFGEAGYLHLDPDAETKTWQMSDIDTGLAVGGAKLPWESYFTYGTPSPLSLDQHIEKYAHFGEGHHHHHH”, the protein production result is on record as “not failed”.

Take “MSLDFHGVFPYLVSPVDAEGRVRADVMGRLCDDLIQAGVHGLTPLGSTGEFAYLGTAQREAVVRATIEAAQRRVPVVAGVASTSVADAVAQAKLYEKLGADGILAILEAYFPLKDAQIESYFRAIADAVEIPVVIYTNPQFQRSDLTLDVIARLAEHPRIRYIKDASTNTGRLLSIINRCGDALQVFSASAHIPAAVMLIGGVGWMAGPACIAPRQSVALYELCKAQRWDEALMLQRKLWRVNEAFAKFNLAACIKAGLALQGYDVGDPIPPQAALTAEERKAVEKVLAEIAEGHHHHHH”: the protein production entry is reported as “not failed”.

Turning to “MSLDKAIKEVRGNGKLKVAVFSDPDCPFCKRLEHEFEKMTDVTVYSFMMPIAGLHPDAARKAQILWCQPDRAKAWTDWMRKGKFPVGGSICDNPVAETTSLGEQFGFNGTPTLVFPNGRTQSGYSPMPQLEEIIRKNQQEGHHHHHH”, the protein production result was “not failed”.

For the sequence “MSLDKVLEDEVVEDTGESQVFNLLNPEFVDFDTCLDPITNELPTSETTKPAGELRREKTPAKKGNSNSSSVDHRFTSASRAFTQKKLDDLKSLFVSLASKSHSNDQYVSYPVFQEYFGLSGSLGERIFDMVTQHRKDDKMTFEDLVIAKMTFEDLVIAKVHT”, the protein production result is reported as “failed”.

Regarding “MSLDNSRTRPRVGHIQFLNCLPLYWGLARTGTLLDFELTKDTPEKLSEQLVRGDLDIGPVTLVEFLKNADDLVAFPDIAVGCDGPVMSCVIVSQVPLDRLDGARVALGSTSRTSVRLAQLLLSERFGVQPDYYTCPPDLSLMMQEADAAVLIGDAALRANMIDGPRYGLDVHDLGALWKEWTGLPFVFAVWAARRDYAEREPVITRKVHEAFLASRNLSLEEVEKVAEQAARWEAFDEDTLAKYFTTLDFRFGAPQLEAVTEFARRVGPTTGFPADVKVELLKPEGHHHHHH”, the protein production result was “not failed”.

Consider “MSLDRIRLASLHDKVISADAAAAFIQDGMTVGMSGFTRAGEAKAVPQALVERAKQNPLKITLITGASLGNDLDKQLTEAGVLARRLPFQVDNTLRRAINNGEVMFIDQHLSETVEQMRNLQLKRPDVAVIEAIAITEDGGIIPTTSVGNSASFAIFAEKVIVEINTSLSEAFEGLHDIYIPSYRPTRQPIPLTKVDERIGTTAIQIDPAKIVGIVFNDTADSPSTVTLPDDETQGIANHLIAFFEKEVAEGRLPQNLGPLQAGIGSIANAVLTGLKDSNFEDLVMYSEVLQDCTFELIDAGKMKFASGSSITLSAKCGEKVFGNIEAYKDKLVLRPQEISNHPELVRRLGIIGINTALEFDIYGNVNSTHVCGTKMMNGIGGSGDFARNAHLAIFVTKSIAKGGDISSIVPMVSHVDHSEHDVDILVTEQGLADLRGLAPRERARAVIDHCVHPLYKDALNDYFSRASAKGGHTPHLLREALSWHVNFEENGHMLAIEPEAKSA”, for which the protein production entry was “failed”.

As to “MSLDRPRCCLRGKECSINRFQQVESRWGYSGTSDRIRFSVNKRIFVVGFGLYGSIHGPTDYQVNIQIIHTDSNTVLGQNDTGFSCDGSASTFRVMFKEPVEVLPNVNYTACATLKGPDSHYGTKGMRKVTHESPTTGAKTCFTFCYAAGNNNGTSVEDGQIPEVIFYTEGHHHHHH”, the protein production result was “not failed”.

Take “MSLDSPLYGRSFADDKMRELFSAQSFISRCVETEVALARAQARLGIIPEDAAAGITAAARTFAPEMERLRDDTEIVGYPILPLVEQLSAHAGEAGKYLHWGATTQDIMDTATVLQIRDGLALISRRIESVRKALAALARNHRDTPMAGRTHLQHALPVTFGYKAAVWLSAFDRHAARLEEISPRVLVVEFSGASGTLASLGTRGLDVQRELARELNLGVPSITWHSARDAVAETVQFLALVSGSLGKLAMDISIMMTTELGEVAEPFVRHRGASSTMPQKQNPVSCELILAGARIVRNHATSMLDAMIHDFERATGPWHLEWSAVPEGFAVASGILYQAEFMLGGLQVFPDRMRENLDHSRGLIVAEAVMMALAPHTGRKEAHDIVYLGCRRAVEDKTGLFEVLRTMPEVAKPLGEEALRDLTDPRNYLGSAGAMVDNVLGGREGHHHHHH”: the protein production result is “not failed”.

In the case of “MSLEAVTILLADDEAILLLDFESTLTDAGFLVTAVSSGAKAIEMLKSGAAIDGVVTDIRFCQPPDGWQVARVAREIDPNMPIVYISGHAALEWASNGVPDSIILEKPFTSAQLITAVSQLLNAREGHHHHHH”, the protein production result is recorded as “not failed”.
